This note sets out measurements from patent US20090053138, “Stabilized Aptamers to Platelet Derived Growth Factor and their Use as Oncology Therapeutics” (published 2009).

This data set has as its target PDGF-BB (Homo sapiens, UniProt P01127 P01127:82-190). In words: cell_activity; 3T3 proliferation; Table 2 prints 3.45. As to conditions: tags: PeproTech; chain copies: 2 (inferred, homodimer).

Sequence of PDGF-BB (P01127 82-190, one chain of several): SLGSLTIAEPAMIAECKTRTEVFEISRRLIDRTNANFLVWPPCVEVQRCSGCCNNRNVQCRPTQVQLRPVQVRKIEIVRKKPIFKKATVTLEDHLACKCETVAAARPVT

B1: ARC124 (ssDNA)
DNA: CACAGGCTACGGCACGTAGAGCATCACCATGATCCTGTG
modifications: 3'-inverted dT
Regarding B1, inhibition was half-maximal at 0.0207 µM (IC50).
